The values that follow come from paper PMC3364216.

This assay has as its target RecU protein from Mycoplasma genitalium (RecUMge) (Mycoplasma genitalium) (UniProt Q49422).

Some results are limits rather than exact numbers.

In turn, “RuvA homologue from Mycoplasma genitalium (RuvAMge), H10-tagged (from UniProt Q49424 1-205) (natural protein)” registered an HJ resolution activity of RecUMge (0.2 uM) on HJ 1.1 preincubated with RecUMge before RuvAMge (0 to 4 uM) was added; percent inhibition (≥20% only at ≥250 nM) greater than 80% and an HJ resolution activity of RecUMge (0.2 uM) on HJ 1.1 preincubated with RuvAMge (0 to 4 uM) before RecUMge was added; percent reduction of activity (about 20% at 60 nM, highest at 1 uM or more) greater than 80%.
